Where no end group is shown, it is not given here. The star is where a group is joined. Biotin = O=C1N[C@H]2[C@H](CS[C@H]2CCCCC(=O)*)N1
Molecular target: Thrombin (UniProt P00734 328-622)
Assay: SPR (Biacore X100), multiple-cycle kinetics; biotinylated peptide on streptavidin chip, thrombin 0 to 50 nM as analyte
Experimental: Two peptides were further prepared (synthesized and purified by Peptide 2.0) with the following sequences: a) Biotin—[…] GCG (SEQ ID NO:367) and b) Biotin—[…] (SEQ ID NO:368). The binding affinities of each peptide towards thrombin were tested on a Biacore X100 system.
In brief, 50 ul of 100 ug/ml of streptavidin (in 10 mM NaAc, 0.1 mM EDTA, 1 mM NaCl, 1 mM DTT pH 4.6) was immobilized onto a sensor chip CM5 that was pre-activated with NHS/EDC at a flow rate of 5 μl/min. After ethanolamine deactivation, biotinylated peptides (10 ng/ml) were injected and captured. Following the standard protocol for multiple-cycle kinetics, a series of injections of thrombin were then performed at 0 nM, 3.125 nM, 6.25 nM, 12.5 nM, 25 nM and 50 nM. After each injection, the sensor surface was regenerated for 2 min with 10 mM Glycine-HCl, pH 1.7 (from GE). The sensogram was recorded (see FIG. 5) and kinetic constants were derived by global fitting to a 1:1 Langmuir binding model using the BIAcore X100 Evaluation Software.

fold change in KD against the linear peptide without cow antibody scaffold sequences (SEQ ID NO:368): > 40 fold
B1: Biotin-GCTSVHQETKKYQSRDPGRLIFQSSYTYNYEHVDVWGCG (designed binder)
peptide: Biotin-GCTSVHQETKKYQSRDPGRLIFQSSYTYNYEHVDVWGCG
modifications: cysteine pairing not given here
notes: Synthetic peptide (Peptide 2.0), captured on a streptavidin CM5 chip; also called peptide a)

From US20160312212A1 (ROCHE SEQUENCING SOLUTIONS, published 2016)
